Where two headings read alike, the source gives them in different places.

For assay [1], the target named is membrane-bound IgE-Fc (IgE-Fc-B-cell receptor: 3xFLAG-Cε2-Cε3-Cε4-EMPD-transmembrane-intracellular domain).
Assay [2] has the same target. The experiment in a line: flow cytometry on cells; graded concentrations of His-tagged BiTE on Ramos-Fcε (doxycycline-induced), empty-vector Ramos, Jurkat E6-1 or TIB-153 cells, 30 min on ice in 2% BSA-PBS; detected with anti-pentahis-AlexaFluor 488 (Ramos) or 647 (Jurkat, TIB-153); EC50 from geometric mean fluorescence. Background: In flow cytometry, cells or beads pass a laser one at a time.

Assay [3] has the same target. The source holds these as a separate data set.
Assay [4] has the same target. This is another data set of the same source.
Assay [5] has as its target CD19 (Homo sapiens (endogenous, Ramos EHRB)) (UniProt P15391). Kind of assay: flow cytometry on cells; graded concentrations of His-tagged BiTE on Ramos-Fcε (doxycycline-induced), empty-vector Ramos, Jurkat E6-1 or TIB-153 cells, 30 min on ice in 2% BSA-PBS; detected with anti-pentahis-AlexaFluor 488 (Ramos) or 647 (Jurkat, TIB-153); EC50 from geometric mean fluorescence.

Assay [6] has the same target.
For assay [7] the target is unchanged. Kind of assay: flow cytometry on cells; graded concentrations of His-tagged BiTE on Ramos-Fcε (doxycycline-induced), empty-vector Ramos, Jurkat E6-1 or TIB-153 cells, 30 min on ice in 2% BSA-PBS; detected with anti-pentahis-AlexaFluor 488 (Ramos) or 647 (Jurkat, TIB-153); EC50 from geometric mean fluorescence. This is another data set of the same source.

Sequence of CD19 (Homo sapiens (endogenous, Ramos EHRB)) (P15391 20-556): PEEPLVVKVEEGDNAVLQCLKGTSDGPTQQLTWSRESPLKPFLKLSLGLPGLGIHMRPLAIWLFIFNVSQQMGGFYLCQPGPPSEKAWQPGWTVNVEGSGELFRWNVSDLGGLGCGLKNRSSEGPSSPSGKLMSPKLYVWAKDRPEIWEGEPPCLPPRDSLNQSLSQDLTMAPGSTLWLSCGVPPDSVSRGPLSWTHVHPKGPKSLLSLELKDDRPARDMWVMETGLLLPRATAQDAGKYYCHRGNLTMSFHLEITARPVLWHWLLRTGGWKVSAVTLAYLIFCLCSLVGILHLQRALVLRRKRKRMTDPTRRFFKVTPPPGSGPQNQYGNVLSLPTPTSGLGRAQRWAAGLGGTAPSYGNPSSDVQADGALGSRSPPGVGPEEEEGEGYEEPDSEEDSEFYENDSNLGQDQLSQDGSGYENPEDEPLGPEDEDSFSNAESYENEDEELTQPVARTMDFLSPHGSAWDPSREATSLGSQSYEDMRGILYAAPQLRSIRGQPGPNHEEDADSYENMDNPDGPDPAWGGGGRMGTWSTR

As usually defined, the EC50 is the concentration needed to bring the measured effect to its halfway point. The low end stands for higher potency in that assay, the high end for lower potency in that assay. Substance “MEDI4212-based BiTE (anti-IgE scFv of MEDI4212 fused to anti-CD3ε scFv) (bispecific antibody)” displayed an NFAT-luciferase reporter in CD3-overexpressing T cells, fold activation with Ramos-Fcε target cells, E:T 1:1, at 400 pM in assay [1] of 10 fold. Also, the EC50 in assay [2] turned out to be 0.4 nM. In addition, the NFAT-luciferase reporter in CD3-overexpressing T cells, fold induction with Ramos-Fcε target cells, E:T 5:1, at 80 pM in assay [3] came to 9 fold. For the same substance, the IL-2 promoter-luciferase reporter in CD3-overexpressing T cells, fold activation with Ramos-Fcε target cells, E:T 2.5, at 400 pM in assay [4] is 4 fold.

Regarding “quilizumab-based BiTE (anti-IgE EMPD scFv of quilizumab fused to anti-CD3ε scFv) (bispecific antibody)”, the EC50 in assay [2] is 40 nM. In other words, the double-digit nanomolar range.

Substance “ligelizumab-based BiTE (anti-IgE scFv of ligelizumab fused to anti-CD3ε scFv) (bispecific antibody)” displayed an NFAT-luciferase reporter in CD3-overexpressing T cells, fold activation with Ramos-Fcε target cells, E:T 1:1, 400 pM (59-fold) to 2000 pM in assay [1] of 162 fold. In assay [2], the EC50 was 0.4 nM. In addition, in assay [3], the NFAT-luciferase reporter in CD3-overexpressing T cells, fold induction with Ramos-Fcε target cells, E:T 5:1, at 400 pM came out at 47 fold. The IL-2 promoter-luciferase reporter in CD3-overexpressing T cells, fold specific activation with Ramos-Fcε target cells, E:T 2.5, at 2 nM in assay [4] amounted to 7 fold.

Take “omalizumab-based BiTE (anti-IgE scFv of omalizumab fused to anti-CD3ε scFv) (bispecific antibody)”: the NFAT-luciferase reporter in CD3-overexpressing T cells, fold activation with Ramos-Fcε target cells, E:T 1:1, at 80 pM in assay [1] was determined as 5 fold. In addition, the EC50 in assay [2] is 2 nM. The substance also gave an NFAT-luciferase reporter in CD3-overexpressing T cells, fold induction with Ramos-Fcε target cells, E:T 5:1, at 80 pM in assay [3] of 11 fold. In assay [4], the IL-2 promoter-luciferase reporter in CD3-overexpressing T cells, fold activation with Ramos-Fcε target cells, E:T 2.5, at 400 pM turned out to be 2 fold.

For “blinatumomab (anti-CD19 scFv fused to anti-CD3ε scFv, with C-terminal 8-His-tag) (bispecific antibody)”, the EC50 in assay [5] was 2.5 nM; in assay [7] it was 5 nM. Further, in assay [6], the NFAT-luciferase reporter in CD3-overexpressing T cells with Ramos-Fcε target cells, E:T 5:1, dilutions of blinatumomab from 1 nM; EC50 of T-cell activation was 14 pM.

These data come from PMC8615095.
